According to paper PMC10802294 (bioRxiv, 2024):
Side chains are listed from the residue outwards. Ends that are not written are not given here. * marks the point of attachment. Biotin = O=C1N[C@H]2[C@H](CS[C@H]2CCCCC(=O)*)N1; RADP = not defined here; Aoa = not defined here

Experiments:
[1] = target: MERS-CoV Mac1 protein (WT) (MERS-CoV, UniProt K9N638 1110-1273); assay: AlphaScreen or HTRF
[2] = target: SARS-CoV-2 Mac1 protein (WT) (SARS-CoV-2, UniProt P0DTC1 1023-1197); assay: AlphaScreen or HTRF

Chain of MERS-CoV Mac1 protein (WT) (K9N638 1110-1273): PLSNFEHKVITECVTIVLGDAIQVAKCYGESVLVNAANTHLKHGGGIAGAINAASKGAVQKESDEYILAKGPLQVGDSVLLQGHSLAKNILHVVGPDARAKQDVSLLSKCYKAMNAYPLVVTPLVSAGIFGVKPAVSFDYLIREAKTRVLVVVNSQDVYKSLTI

B1: 10 amino acid biotinylated and ADP-ribosylated peptide [ARTK(Bio)QTARK(Aoa-RADP)S] (peptide)
peptide: ARTK(Biotin)QTARK([Aoa-RADP])S
modifications: reading uncertain
- binding result [1]: binds
- binding result [2]: binds
